Results: paper PMC7279355, “Preparation of Biphenyl-Conjugated Bromotyrosine for Inhibition of PD-1/PD-L1 Immune Checkpoint Interactions” (International Journal of Molecular Sciences, 2020)

What was measured:
[1] = biological target: PD-L1, histidine (His)-tagged (UniProt Q9NZQ7); assay: AlphaScreen or HTRF; AlphaLISA kit AL356 HV/C/F (PerkinElmer), competition: biotin-conjugated PD-1 on streptavidin-coated donor beads, His-tagged PD-L1 on anti-His acceptor beads; 2 uL each of inhibitor dilution, PD-L1 (25 nM), PD-1 (25 nM) and the two beads in 10 uL; 25 °C, 90 min; IC50 from sigmoidal fit
Sequence of PD-L1, histidine (His)-tagged (Q9NZQ7 19-238): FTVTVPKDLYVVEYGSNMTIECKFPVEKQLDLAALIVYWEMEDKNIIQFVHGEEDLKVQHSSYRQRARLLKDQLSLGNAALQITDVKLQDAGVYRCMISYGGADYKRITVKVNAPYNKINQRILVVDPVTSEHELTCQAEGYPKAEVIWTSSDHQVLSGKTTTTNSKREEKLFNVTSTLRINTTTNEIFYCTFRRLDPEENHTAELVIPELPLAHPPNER

PD-L1 (Homo sapiens) = PD-L1 (Homo sapiens) (UniProt Q9NZQ7); details: cited from earlier work
Sequence of PD-L1 (Homo sapiens) (Q9NZQ7 19-238): as above

Sequence of PD-1 (Q15116 25-170): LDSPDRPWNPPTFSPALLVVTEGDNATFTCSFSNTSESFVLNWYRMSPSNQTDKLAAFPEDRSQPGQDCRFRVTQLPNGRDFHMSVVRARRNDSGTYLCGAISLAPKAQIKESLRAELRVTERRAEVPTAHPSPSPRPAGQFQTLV

| Substance | IC50 [1] | Kd (PD-L1 (Homo sapiens)) |
| --- | --- | --- |
| CERXNKM (peptide) | 308 µM |  |
| FWRXNNI (peptide) | 312 µM |  |
| PD-1 (from UniProt Q15116) |  | 6.4 µM |
